According to article PMC4605301, “hSSB1 (NABP2/ OBFC2B) is required for the repair of 8-oxo-guanine by the hOGG1-mediated base excision repair pathway” (Nucleic Acids Research, 2015):

Key:
GST-hOGG1 wild type = GST-hOGG1 wild type (human, UniProt O15527 1-345); assay: cell-based or functional assay
hOGG1 F319A = biological target: T1, hOGG1 F319A (human, UniProt O15527 1-345, F319A); assay: pull-down; biotinylated dsDNA with an 8oxoG lesion on Dynabeads M-280 Streptavidin; 2 μg each of hSSB1 and hOGG1 F319A pre-incubated in buffer K with 75 mM KCl at 4°C, then 2 h with beads at 4°C, wash with 100 mM KCl; SDS-PAGE, Coomassie blue; settings: both partners purified
T1 construct: human 8-oxoguanine glycosylase 1 (hOGG1) with F319A, from the pGEX-hOGG1 vector; Mutant defective for 8-oxoG recognition; also called hOGG1 mutant (F319A)
T1 sequence (O15527 whole entry F319A): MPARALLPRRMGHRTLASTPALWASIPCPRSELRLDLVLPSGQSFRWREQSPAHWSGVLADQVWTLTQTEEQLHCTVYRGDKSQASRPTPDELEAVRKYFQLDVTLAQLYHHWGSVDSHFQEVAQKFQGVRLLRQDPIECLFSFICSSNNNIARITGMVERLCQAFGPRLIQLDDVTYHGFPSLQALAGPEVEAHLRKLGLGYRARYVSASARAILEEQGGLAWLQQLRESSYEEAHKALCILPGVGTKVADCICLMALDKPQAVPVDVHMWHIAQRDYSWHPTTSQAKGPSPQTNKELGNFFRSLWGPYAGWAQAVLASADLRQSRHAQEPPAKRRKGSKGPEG

Chain of GST-hOGG1 wild type (O15527 whole entry): as the sequence (O15527 whole entry F319A) above, with A319F counted along it

- 8-oxoG incision activity of 20 nM recombinant hOGG1 on a 22 bp dsDNA with 8-oxoG opposite cytosine, with increasing concentrations of hSSB1 (37°C, 30 min) (GST-hOGG1 wild type): 12 fold
- binding result (hOGG1 F319A): binds
B1: recombinant hSSB1 full length, N-terminal (His)6-tag (natural protein, human, UniProt Q9BQ15 1-211, looked up)
chain: MTTETFVKDIKPGLKNLNLIFIVLETGRVTKTKDGHEVRTCKVADKTGSINISVWDDVGNLIQPGDIIRLTKGYASVFKGCLTLYTGRGGDLQKIGEFCMVYSEVPNFSEPNPEYSTQQAPNKAVQNDSNPSASQPTTGPSAASPASENQNGNGLSAPPGPGGGPHPPHTPSHPPSTRITRSQPNHTPAGPPGPSSNPVSNGKETRRSSKR
notes: also called hSSB1 Full length (FL); purified recombinant hSSB1; source: E. coli T7 shuffle strain, purified (Superdex 200)
